Paper PMC9443353

Columns and labels:
[1] = molecular target: T1, DENV2 NS1 (Dengue virus serotype 2) (UniProt Q9WDA6); test: filter binding with qPCR
T1 sequence: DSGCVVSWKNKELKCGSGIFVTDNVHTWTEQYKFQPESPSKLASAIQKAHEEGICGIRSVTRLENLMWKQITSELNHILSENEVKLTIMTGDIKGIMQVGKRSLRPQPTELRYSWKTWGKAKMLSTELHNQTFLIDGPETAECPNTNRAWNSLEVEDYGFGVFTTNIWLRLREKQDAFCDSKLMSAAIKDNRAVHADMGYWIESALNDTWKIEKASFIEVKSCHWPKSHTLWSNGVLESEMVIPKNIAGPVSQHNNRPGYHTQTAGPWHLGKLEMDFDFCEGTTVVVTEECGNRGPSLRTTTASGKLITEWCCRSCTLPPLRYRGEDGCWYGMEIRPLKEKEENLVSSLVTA

[2] = molecular target: T2, DENV4 NS1 (Dengue virus serotype 4) (UniProt Q2YHF0); test: filter binding with qPCR; details: ELONA: borate buffer (60 mM in selection), 37 °C, 30 min, pH not stated; specificity: selection buffer, filtration, qPCR; FET: human serum as gate electrolyte …
T2 sequence: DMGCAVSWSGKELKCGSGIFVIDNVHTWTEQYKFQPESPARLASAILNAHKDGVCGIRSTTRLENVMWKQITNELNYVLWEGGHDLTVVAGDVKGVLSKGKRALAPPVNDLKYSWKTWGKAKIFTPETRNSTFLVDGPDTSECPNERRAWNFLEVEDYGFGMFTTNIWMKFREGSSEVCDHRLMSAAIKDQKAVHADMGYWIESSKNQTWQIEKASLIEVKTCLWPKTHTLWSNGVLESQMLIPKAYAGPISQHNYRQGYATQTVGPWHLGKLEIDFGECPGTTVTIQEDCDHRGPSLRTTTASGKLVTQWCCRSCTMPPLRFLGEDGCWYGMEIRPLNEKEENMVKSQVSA

Sequence “CTTCTGCCCGCCTCCTTCCGGGCCCCGGGGGGTGTCCAGGCCCATGCGTCGTCCGCGGGGAGACGAGATAGGCGGACACT [ZIKV60]” has a binding signal (ratio ZIKV NS1/DENV2 NS1 bound) [1] of 14.8 and a binding signal (ratio ZIKV NS1/DENV4 NS1 bound) [2] of 14.8.
